Holding throughout (test): co-sedimentation
Test [1] concerns the target Yeast (Saccharomyces cerevisiae) actin, wild type, filaments (Saccharomyces cerevisiae, UniProt P60010 1-375).
The target in test [2] is T1, Rabbit skeletal muscle α-actin filaments (F-actin) (rabbit, UniProt P68135 1-377).
The target in test [3] is T1, Rabbit skeletal muscle α-actin …. The source holds these as a separate data set.

This note sets out measurements from PMC4540644 (Journal of molecular biology, 2015).

B1: Human vinculin tail (VT, residues 879-1066) (domain or fragment, UniProt P18206-2 879-1066, looked up)
chain: EEKDEEFPEQKAGEVINQPMMMAARQLHDEARKWSSKGNDIIAAAKRMALLMAEMSRLVRGGSGTKRALIQCAKDIAKASDEVTRLAKEVAKQCTDKRIRTNLLQVCERIPTISTQLKILSTVKATMLGRTNISDEESEQATEMLVHNAQNLMQSVKETVREAEAASIKIRTDAGFTLRWVRKTPWYQ
What is called stoichiometry N is a count of units in the complex or per binding partner. Consider B1, for which the binding result in test [1] is reported as “binds”. Further, the “stoichiometry N” value in test [2] amounted to 1.

B2: Human metavinculin tail (MVT, residues 879-1134) (domain or fragment)
chain: EEKDEEFPEQKAGEVINQPMMMAARQLHDEARKWSSKPGIPAAEVGIGVVAEADAADAAGFPVPPDMEDDYEPELLLMPSNQPVNQPILAAAQSLHREATKWSSKGNDIIAAAKRMALLMAEMSRLVRGGSGTKRALIQCAKDIAKASDEVTRLAKEVAKQCTDKRIRTNLLQVCERIPTISTQLKILSTVKATMLGRTNISDEESEQATEMLVHNAQNLMQSVKETVREAEAASIKIRTDAGFTLRWVRKTPWYQ
Broadly, the Kd is the free concentration of one partner at which half of the binding sites on the other are occupied at equilibrium, for simple one-to-one binding. For the molecule B2, the “stoichiometry N” value in test [2] was determined as 1. Also, the Kd in test [3] was found to be 560 ± 90 nM.
